# Bridges are numbered along the chain shown (N, C = ends). [ ]: non-standard residue; d: D form. 2Nal = N[C@@H](Cc1ccc2ccccc2c1)C(=O)O; Cit = NC(=O)NCCC[C@H](N)C(=O)O; Dab = NCC[C@H](N)C(=O)O
# B1: Example 133 (peptide)
# peptide: cyclo(YR[Cit]CRG[dP]RR[2Nal]CYTK[dP]P)
# modifications: disulfide 4-11
# SMILES: C[C@@H](O)[C@@H]1NC(=O)[C@H](Cc2ccc(O)cc2)NC(=O)[C@@H]2CSSC[C@H](NC(=O)[C@H](CCCNC(N)=O)NC(=O)[C@H](CCCNC(=N)N)NC(=O)[C@H](Cc3ccc(O)cc3)NC(=O)[C@@H]3CCCN3C(=O)[C@H]3CCCN3C(=O)[C@H](CCCCN)NC1=O)C(=O)N[C@@H](CCCNC(=N)N)C(=O)NCC(=O)N1CCC[C@@H]1C(=O)N[C@@H](CCCNC(=N)N)C(=O)N[C@@H](CCCNC(=N)N)C(=O)N[C@@H](Cc1ccc3ccccc3c1)C(=O)N2
# B2: Example 134 (peptide)
# peptide: cyclo(YR[Cit]CRG[dP][Dab]R[2Nal]CY[Cit]K[dP]P)
# modifications: disulfide 4-11
# SMILES: N=C(N)NCCC[C@@H]1NC(=O)[C@@H]2CSSC[C@H](NC(=O)[C@H](Cc3ccc4ccccc4c3)NC(=O)[C@H](CCCNC(=N)N)NC(=O)[C@H](CCN)NC(=O)[C@H]3CCCN3C(=O)CNC1=O)C(=O)N[C@@H](Cc1ccc(O)cc1)C(=O)N[C@@H](CCCNC(N)=O)C(=O)N[C@@H](CCCCN)C(=O)N1CCC[C@@H]1C(=O)N1CCC[C@H]1C(=O)N[C@@H](Cc1ccc(O)cc1)C(=O)N[C@@H](CCCNC(=N)N)C(=O)N[C@@H](CCCNC(N)=O)C(=O)N2
# Molecular target: human CXCR4 (human, UniProt P61073 1-352)
# Experiment: cell-based or functional assay
# Chain of human CXCR4 (P61073 whole entry): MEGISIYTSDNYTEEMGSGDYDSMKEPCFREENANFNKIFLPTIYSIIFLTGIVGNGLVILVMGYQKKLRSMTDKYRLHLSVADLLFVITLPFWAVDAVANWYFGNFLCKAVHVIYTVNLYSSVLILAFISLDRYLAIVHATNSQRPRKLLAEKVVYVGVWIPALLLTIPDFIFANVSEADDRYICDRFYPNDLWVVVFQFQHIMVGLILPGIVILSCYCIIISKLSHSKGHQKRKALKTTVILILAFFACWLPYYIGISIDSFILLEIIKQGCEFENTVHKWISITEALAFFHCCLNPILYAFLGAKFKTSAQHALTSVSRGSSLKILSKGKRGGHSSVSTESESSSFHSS
row,IC50 (nM) Ca2+ assay (method 2),Binder
1,5.3 nM,B1
2,1.7 nM,B2
